US7629323B2, “Manipulation of neuronal ion channels” (Northwestern University, priority 2003, dated 2009)

Columns and labels:
[1] = molecular target: T1, homomeric Kv3.4a channels (Rattus norvegicus, UniProt Q63734); assay: Whole-cell recording of homomeric Kv3.4a channels expressed in HEK293 cells; format: cell-based; settings: n=5
T1 construct: expressed in transfected cells; host or cells: HEK293
T1 sequence (Q63734 1-625): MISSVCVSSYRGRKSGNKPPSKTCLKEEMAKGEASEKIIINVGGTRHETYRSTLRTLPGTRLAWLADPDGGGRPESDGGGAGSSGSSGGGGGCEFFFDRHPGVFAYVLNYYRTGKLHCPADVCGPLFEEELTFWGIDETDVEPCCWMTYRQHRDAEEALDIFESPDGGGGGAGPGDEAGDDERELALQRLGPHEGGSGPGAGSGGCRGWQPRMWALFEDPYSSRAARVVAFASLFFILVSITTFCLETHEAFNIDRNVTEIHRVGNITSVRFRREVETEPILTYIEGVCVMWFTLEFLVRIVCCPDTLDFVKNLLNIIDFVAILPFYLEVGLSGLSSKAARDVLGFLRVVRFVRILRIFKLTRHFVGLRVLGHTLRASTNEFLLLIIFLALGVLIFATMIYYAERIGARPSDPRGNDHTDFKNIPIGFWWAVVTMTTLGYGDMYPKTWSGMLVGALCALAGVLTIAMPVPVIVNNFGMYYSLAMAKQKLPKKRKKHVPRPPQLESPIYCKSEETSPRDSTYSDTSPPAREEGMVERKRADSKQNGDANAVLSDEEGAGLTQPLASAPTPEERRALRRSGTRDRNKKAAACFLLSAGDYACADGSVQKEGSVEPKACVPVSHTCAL
Description: (§1) Electrophysiology. Whole-cell recordings used standard techniques^27,28. The internal solution consisted of (in mM): 30-90 K2SO4, 0-60 N-methyl-D-glucamine, 2 MgCl2, 40 HEPES, 5 EGTA, 12 phosphocreatine, 2 Na2ATP, 0.2 Na3GTP, and 0.1 leupeptin, pH 7.2 with H2SO4 (osmolarity 260-270 mOsm/l). The external solution consisted of (in mM): 140 Na-isethionate, 2 KCl, 4 MgCl2, 10 HEPES, 12 glucose and 0.001 TTX, pH 7.35 with NaOH (osmolarity 295-305 mOsm/l). The internal solution for current clamp recordings consisted of (in mM) 110 potassium methylsulphate, 2 MgCl2, 40 HEPES, 5 EGTA, 12 phosphocreatine, 2 Na2ATP, 0.2 Na3GTP, and 0.1 leupeptin, pH 7.2 with H2SO4 (osmolarity 260-270 mOsm/l). In the case of current clamp recordings, TTX was omitted from external solution. For the recordings in the presence of Ca^+2 ions EGTA was omitted from internal solution and 4 mM of MgCl2 was substituted by 2 mM of CaCl2 and 2 mM of MgCl2. […] Recordings were obtained with Axon Instruments 200 patch-clamp amplifier and controlled and monitored with a PC running pClamp software (version 7.0) (Axon Instruments Inc., Union City, Calif.). […] After seal rupture, series resistance (2-10 MΩ) was compensated (75-90%) and periodically monitored. […]
(§2) Single cell RT-PCR (scRT-PCR). […] In the case of co-transfection with Kv3.4a and Kv3.1b cDNA, single cell RT-PCR was used to confirm the presence of both mRNAs in the recorded cell. […]

[2] = molecular target: T2, Kv3.4a/Kv3.1b heteromeric channels (Rattus norvegicus, UniProt P25122+Q63734); format: cell-based; settings: HEK293 cells, n=4
T2 construct: expressed in transfected cells; host or cells: HEK293
T2 sequence (Q63734 1-625): T1 sequence (Q63734 1-625)
T2 sequence (P25122 1-585): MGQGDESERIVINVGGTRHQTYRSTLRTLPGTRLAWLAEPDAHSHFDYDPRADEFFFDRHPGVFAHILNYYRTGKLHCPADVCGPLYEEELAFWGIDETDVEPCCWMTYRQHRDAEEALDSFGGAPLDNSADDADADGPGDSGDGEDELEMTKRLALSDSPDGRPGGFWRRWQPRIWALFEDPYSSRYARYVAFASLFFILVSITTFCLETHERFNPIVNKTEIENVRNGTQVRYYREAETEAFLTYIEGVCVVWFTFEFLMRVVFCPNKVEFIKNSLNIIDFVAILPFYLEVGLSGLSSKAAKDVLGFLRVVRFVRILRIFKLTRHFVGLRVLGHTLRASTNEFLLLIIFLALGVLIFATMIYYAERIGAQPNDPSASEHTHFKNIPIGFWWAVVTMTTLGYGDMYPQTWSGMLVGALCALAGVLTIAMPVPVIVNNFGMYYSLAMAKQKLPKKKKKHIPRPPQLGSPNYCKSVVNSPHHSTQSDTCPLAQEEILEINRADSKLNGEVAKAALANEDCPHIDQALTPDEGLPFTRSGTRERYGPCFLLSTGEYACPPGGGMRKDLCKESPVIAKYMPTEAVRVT
Description: as §1, §2

BDS-I (AAPCFCSGKPGRGDLWILRGTCPGGYGYTSNCYKWPNICCYPH)
effect on homomeric Kv3.4a channel currents [1]: slowed the rising phase of the currents but led to larger currents later in the step | block of Kv3.4a/Kv3.1b heteromeric channels [2]: strong at the beginning of a depolarizing step and then waned with maintained depolarization
